The data set relates to Escherichia coli TOP10. Briefly: shrunken log2 fold change of peptide-encoding DNA abundance (4.5 h post-induction vs induction); higher = less antimicrobial activity (less host growth inhibition). As to conditions: time post-induction: 4.5 h; library: site-saturation at positions 5, 18, 19, 20.
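Note: peptides expressed intracellularly from a pBAD plasmid library in pooled LB shake-flask culture, induced with 0.3% L-arabinose, DNA abundance read by NGS, three biological replicates, DESeq2 with apeglm shrinkage.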

On to RRIRTRPPRLPRPRPRPTEEPRP, for which the “shrunken log2 fold change” value was determined as 0.12.

Regarding RRIRCRPPRLPRPRPRPKQGPRP, the “shrunken log2 fold change” value is 0.261.

For RRIRYRPPRLPRPRPRPPGDPRP, the “shrunken log2 fold change” value was 0.152.

As for RRIRLRPPRLPRPRPRPHTTPRP, the “shrunken log2 fold change” value is -0.368.

As for RRIRMRPPRLPRPRPRPGIKPRP, the “shrunken log2 fold change” value came out at 0.274.

With RRIRLRPPRLPRPRPRPKMDPRP, the “shrunken log2 fold change” value is -0.428.

Turning to RRIRERPPRLPRPRPRPQCDPRP, the “shrunken log2 fold change” value is -0.162.

Take RRIRWRPPRLPRPRPRPWVYPRP: the “shrunken log2 fold change” value was -0.384.

As for RRIRLRPPRLPRPRPRPYFTPRP, the “shrunken log2 fold change” value was -0.468.

For the sequence RRIRGRPPRLPRPRPRPCCMPRP, the “shrunken log2 fold change” value was 0.474.

With RRIRSRPPRLPRPRPRPQWYPRP, the “shrunken log2 fold change” value was -0.73.

With RRIRTRPPRLPRPRPRPEDGPRP, the “shrunken log2 fold change” value is 0.0244.

For the sequence RRIRTRPPRLPRPRPRPCASPRP, the “shrunken log2 fold change” value was found to be 0.184.

For the sequence RRIRQRPPRLPRPRPRPEQGPRP, the “shrunken log2 fold change” value came out at 0.0169.

RRIRFRPPRLPRPRPRPCENPRP: the “shrunken log2 fold change” value was 0.015.

For the sequence RRIRPRPPRLPRPRPRPYTTPRP, the “shrunken log2 fold change” value was -0.52.

Take RRIRERPPRLPRPRPRPKNAPRP: the “shrunken log2 fold change” value was -0.352.

Take RRIRCRPPRLPRPRPRPICFPRP: the “shrunken log2 fold change” value is -0.241.

As for RRIRLRPPRLPRPRPRPPLMPRP, the “shrunken log2 fold change” value was found to be 0.313.

RRIRWRPPRLPRPRPRPDCCPRP: the “shrunken log2 fold change” value was 0.777.

In the case of RRIRYRPPRLPRPRPRPEICPRP, the “shrunken log2 fold change” value was 0.0682.

Regarding RRIRIRPPRLPRPRPRPIWTPRP, the “shrunken log2 fold change” value was -0.0318.

Regarding RRIRHRPPRLPRPRPRPRDGPRP, the “shrunken log2 fold change” value worked out at 0.84.

As for RRIRKRPPRLPRPRPRPMRDPRP, the “shrunken log2 fold change” value came to 0.0228.

As to RRIRLRPPRLPRPRPRPWRAPRP, the “shrunken log2 fold change” value stood at 0.392.

As to RRIRLRPPRLPRPRPRPQPCPRP, the “shrunken log2 fold change” value is -0.215.

For the sequence RRIRNRPPRLPRPRPRPIYEPRP, the “shrunken log2 fold change” value is -0.232.

Turning to RRIRMRPPRLPRPRPRPPFVPRP, the “shrunken log2 fold change” value came out at 0.267.

Turning to RRIRKRPPRLPRPRPRPPIPPRP, the “shrunken log2 fold change” value came out at 0.987.

Regarding RRIRWRPPRLPRPRPRPTPYPRP, the “shrunken log2 fold change” value worked out at 0.284.

Consider RRIRWRPPRLPRPRPRPFHDPRP, for which the “shrunken log2 fold change” value was -0.285.

Take RRIRLRPPRLPRPRPRPQHTPRP: the “shrunken log2 fold change” value was -0.418.

Turning to RRIRHRPPRLPRPRPRPMDGPRP, the “shrunken log2 fold change” value was -0.0367.

In the case of RRIRARPPRLPRPRPRPWREPRP, the “shrunken log2 fold change” value was -0.0619.

As for RRIRRRPPRLPRPRPRPVCFPRP, the “shrunken log2 fold change” value stood at 0.383.

With RRIRERPPRLPRPRPRPICYPRP, the “shrunken log2 fold change” value is -0.4.

With RRIRRRPPRLPRPRPRPCIRPRP, the “shrunken log2 fold change” value was -0.135.

As to RRIRHRPPRLPRPRPRPEPYPRP, the “shrunken log2 fold change” value came to 0.0514.

RRIRIRPPRLPRPRPRPWHSPRP: the “shrunken log2 fold change” value was -0.383.

For RRIRMRPPRLPRPRPRPHGCPRP, the “shrunken log2 fold change” value was found to be 0.669.

As for RRIRKRPPRLPRPRPRPAGQPRP, the “shrunken log2 fold change” value turned out to be 0.0284.

On to RRIRCRPPRLPRPRPRPGERPRP, for which the “shrunken log2 fold change” value came out at 0.01.

As to RRIRDRPPRLPRPRPRPYFPPRP, the “shrunken log2 fold change” value was -0.944.

As to RRIRFRPPRLPRPRPRPIEDPRP, the “shrunken log2 fold change” value was -0.461.

As to RRIRRRPPRLPRPRPRPYMLPRP, the “shrunken log2 fold change” value is -0.685.

With RRIRPRPPRLPRPRPRPTMKPRP, the “shrunken log2 fold change” value was -0.179.

For the sequence RRIRARPPRLPRPRPRPTIFPRP, the “shrunken log2 fold change” value was 0.377.

As for RRIRLRPPRLPRPRPRPPRPPRP, the “shrunken log2 fold change” value stood at 0.782.

Regarding RRIRERPPRLPRPRPRPDDLPRP, the “shrunken log2 fold change” value was 0.00911.

Take RRIRVRPPRLPRPRPRPEAFPRP: the “shrunken log2 fold change” value came out at 0.143.

For the sequence RRIRERPPRLPRPRPRPNVLPRP, the “shrunken log2 fold change” value is -0.0106.

RRIRIRPPRLPRPRPRPSYRPRP: the “shrunken log2 fold change” value is -0.0544.

As to RRIRRRPPRLPRPRPRPNQIPRP, the “shrunken log2 fold change” value is -0.349.

Take RRIRRRPPRLPRPRPRPFQAPRP: the “shrunken log2 fold change” value is 0.376.

For the sequence RRIRWRPPRLPRPRPRPGGVPRP, the “shrunken log2 fold change” value was 0.427.

Turning to RRIRSRPPRLPRPRPRPKWEPRP, the “shrunken log2 fold change” value is 0.274.

Take RRIRRRPPRLPRPRPRPNTMPRP: the “shrunken log2 fold change” value was -0.262.

As to RRIRCRPPRLPRPRPRPTDRPRP, the “shrunken log2 fold change” value is 0.15.

As for RRIRPRPPRLPRPRPRPERGPRP, the “shrunken log2 fold change” value worked out at 0.575.

Regarding RRIRDRPPRLPRPRPRPPWLPRP, the “shrunken log2 fold change” value was determined as 0.296.

As for RRIRRRPPRLPRPRPRPGWIPRP, the “shrunken log2 fold change” value worked out at 0.442.

RRIRMRPPRLPRPRPRPQKDPRP: the “shrunken log2 fold change” value was determined as 0.0308.

RRIRWRPPRLPRPRPRPPDGPRP: the “shrunken log2 fold change” value came to 0.784.

Consider RRIRKRPPRLPRPRPRPMMAPRP, for which the “shrunken log2 fold change” value was 0.255.

With RRIRNRPPRLPRPRPRPFRNPRP, the “shrunken log2 fold change” value is -0.515.

In the case of RRIRWRPPRLPRPRPRPYQAPRP, the “shrunken log2 fold change” value was -0.0526.

As to RRIRCRPPRLPRPRPRPIYVPRP, the “shrunken log2 fold change” value was -0.447.

Turning to RRIRARPPRLPRPRPRPLWSPRP, the “shrunken log2 fold change” value came to 0.263.

In the case of RRIRARPPRLPRPRPRPWRSPRP, the “shrunken log2 fold change” value worked out at 0.143.

RRIRTRPPRLPRPRPRPHMGPRP: the “shrunken log2 fold change” value was -0.00538.

With RRIRLRPPRLPRPRPRPDFWPRP, the “shrunken log2 fold change” value was found to be 0.484.

As to RRIRTRPPRLPRPRPRPAWPPRP, the “shrunken log2 fold change” value stood at 0.444.

Regarding RRIRMRPPRLPRPRPRPGWWPRP, the “shrunken log2 fold change” value is -0.026.

As for RRIRWRPPRLPRPRPRPRRFPRP, the “shrunken log2 fold change” value was found to be 0.269.

Consider RRIRLRPPRLPRPRPRPVEPPRP, for which the “shrunken log2 fold change” value was determined as 0.188.

RRIRKRPPRLPRPRPRPERDPRP: the “shrunken log2 fold change” value is 0.621.

Consider RRIRFRPPRLPRPRPRPMSEPRP, for which the “shrunken log2 fold change” value is -0.381.

In the case of RRIRERPPRLPRPRPRPDLTPRP, the “shrunken log2 fold change” value worked out at 0.0375.

For RRIRLRPPRLPRPRPRPPCTPRP, the “shrunken log2 fold change” value was 0.036.

Take RRIRMRPPRLPRPRPRPAPNPRP: the “shrunken log2 fold change” value was 1.07.

For RRIRHRPPRLPRPRPRPQLYPRP, the “shrunken log2 fold change” value was -0.238.

Take RRIRLRPPRLPRPRPRPMYGPRP: the “shrunken log2 fold change” value is -0.179.

Turning to RRIRCRPPRLPRPRPRPTNWPRP, the “shrunken log2 fold change” value is -0.0072.

As to RRIRHRPPRLPRPRPRPMLYPRP, the “shrunken log2 fold change” value was -1.49.

For RRIRARPPRLPRPRPRPITFPRP, the “shrunken log2 fold change” value worked out at 0.051.

For the sequence RRIRARPPRLPRPRPRPSWAPRP, the “shrunken log2 fold change” value worked out at 0.106.

Regarding RRIRQRPPRLPRPRPRPLDWPRP, the “shrunken log2 fold change” value is 0.099.

Turning to RRIRKRPPRLPRPRPRPKTFPRP, the “shrunken log2 fold change” value is -0.124.

Consider RRIRTRPPRLPRPRPRPYHRPRP, for which the “shrunken log2 fold change” value stood at 0.0446.

Consider RRIRTRPPRLPRPRPRPWTVPRP, for which the “shrunken log2 fold change” value was -0.0107.

As to RRIRSRPPRLPRPRPRPDTEPRP, the “shrunken log2 fold change” value was -0.0911.

These data come from the supplement of paper PMC9112550, “Optimization of the antimicrobial peptide Bac7 by deep mutational scanning” (BMC Biology, 2022).
